# Earlier results as cited in patent US20190351003A1, “METHODS FOR INHIBITING NONALCOHOLIC STEATOHEPATITIS, NONALCOHOLIC FATTY LIVER DISEASE, AND/OR DE NOVO LIPOGENESIS” (The Regents of the University of California, priority 2017, published 2019).
# Where no end group is shown, it is not given here. The star is where a group is joined. CH2F = FC*
# Target: T1, caspase-2 (Homo sapiens, UniProt P42575)
# T1 sequence (P42575 1-452): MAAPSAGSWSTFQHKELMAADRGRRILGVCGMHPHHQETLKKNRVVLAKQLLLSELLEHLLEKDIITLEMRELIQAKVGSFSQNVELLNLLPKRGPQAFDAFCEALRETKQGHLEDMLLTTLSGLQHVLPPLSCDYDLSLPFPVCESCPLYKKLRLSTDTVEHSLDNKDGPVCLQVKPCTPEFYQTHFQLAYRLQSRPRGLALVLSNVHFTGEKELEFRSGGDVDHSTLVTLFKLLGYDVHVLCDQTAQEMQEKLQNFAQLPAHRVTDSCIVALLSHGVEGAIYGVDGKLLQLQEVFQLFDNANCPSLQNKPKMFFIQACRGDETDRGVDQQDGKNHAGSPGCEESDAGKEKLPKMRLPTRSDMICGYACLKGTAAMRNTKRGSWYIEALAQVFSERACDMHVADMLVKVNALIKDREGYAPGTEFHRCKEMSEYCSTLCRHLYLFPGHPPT
# Conditions: cell-permeable peptide; fluoromethylketone derivative; cited from earlier work
substance,measurement,value
VDVAD (VDVAD-CH2F) [available as a fluoromethylketone derivative],activity of caspase-2,irreversibly inhibits
